In US11352401 one finds peptide exchange yield data, which are given here for 66 molecules.

B1: GEVHPSEMI (SEQ ID NO: 367) (peptide)
peptide: GEVHPSEMI
B2: RELQHEHSL (SEQ ID NO: 481) (peptide)
peptide: RELQHEHSL
B3: AEIQPQTQV (SEQ ID NO: 479) (peptide)
peptide: AEIQPQTQV
B4: MEMQKSPVF (SEQ ID NO: 373) (peptide)
peptide: MEMQKSPVF
B5: EENDQSTHKW (SEQ ID NO: 483) (peptide)
peptide: EENDQSTHKW
B6: TEREWADEW (SEQ ID NO: 482) (peptide)
peptide: TEREWADEW
B7: SEIEDSTKQVF (SEQ ID NO: 485) (peptide)
peptide: SEIEDSTKQVF
B8: QENSYQSRL (SEQ ID NO: 477) (peptide)
peptide: QENSYQSRL
B9: AEDQLHHSF (SEQ ID NO: 487) (peptide)
peptide: AEDQLHHSF
B10: SEIEQEIGSL (SEQ ID NO: 478) (peptide)
peptide: SEIEQEIGSL
B11: EEIERFFKL (SEQ ID NO: 369) (peptide)
peptide: EEIERFFKL
B12: SEDDPILQI (SEQ ID NO: 486) (peptide)
peptide: SEDDPILQI
B13: VQQWSVAVF (SEQ ID NO: 7) (peptide)
peptide: VQQWSVAVF
B14: SYEVRSTF (SEQ ID NO: 21) (peptide)
peptide: SYEVRSTF
B15: YYADKKTFIVL (SEQ ID NO: 17) (peptide)
peptide: YYADKKTFIVL
B16: TYNPDFSSL (SEQ ID NO: 16) (peptide)
peptide: TYNPDFSSL
B17: NYAENILTL (SEQ ID NO: 61) (peptide)
peptide: NYAENILTL
B18: NYIVPDKQIF (SEQ ID NO: 379) (peptide)
peptide: NYIVPDKQIF
B19: TYLSIFDQL (SEQ ID NO: 60) (peptide)
peptide: TYLSIFDQL
B20: WYGWHFPEL (SEQ ID NO: 76) (peptide)
peptide: WYGWHFPEL
B21: QYEPPSAPSTTF (SEQ ID NO: 40) (peptide)
peptide: QYEPPSAPSTTF
B22: KSSVIASLLF (SEQ ID NO: 33) (peptide)
peptide: KSSVIASLLF
B23: KQMEDGHTLF (SEQ ID NO: 36) (peptide)
peptide: KQMEDGHTLF
B24: SYIGLPLTL (SEQ ID NO: 73) (peptide)
peptide: SYIGLPLTL
B25: LLIKLLQTF (SEQ ID NO: 54) (peptide)
peptide: LLIKLLQTF
B26: SYSSCYSF (SEQ ID NO: 14) (peptide)
peptide: SYSSCYSF
B27: RPMQQARAQL (SEQ ID NO: 459) (peptide)
peptide: RPMQQARAQL
B28: RIREHVPQL (SEQ ID NO: 245) (peptide)
peptide: RIREHVPQL
B29: SPQRLRGLLL (SEQ ID NO: 292) (peptide)
peptide: SPQRLRGLLL
B30: VPISEEGTPVL (SEQ ID NO: 280) (peptide)
peptide: VPISEEGTPVL
B31: RPAATAVISL (SEQ ID NO: 237) (peptide)
peptide: RPAATAVISL
B32: NPFYPEVEL (SEQ ID NO: 222) (peptide)
peptide: NPFYPEVEL
B33: MPLPWSLALP (SEQ ID NO: 271) (peptide)
peptide: MPLPWSLALP
B34: TPYQEHVAL (SEQ ID NO: 274) (peptide)
peptide: TPYQEHVAL
B35: MPQIETRVIL (SEQ ID NO: 282) (peptide)
peptide: MPQIETRVIL
B36: RALLARLLL (SEQ ID NO: 247) (peptide)
peptide: RALLARLLL
B37: SPARASPAL (SEQ ID NO: 279) (peptide)
peptide: SPARASPAL
B38: YPQHPGLNA (SEQ ID NO: 260) (peptide)
peptide: YPQHPGLNA
B39: APHPPLSVV (SEQ ID NO: 275) (peptide)
peptide: APHPPLSVV
B40: APSARVGVC (SEQ ID NO: 261) (peptide)
peptide: APSARVGVC
B41: VPLPAGGGTVL (SEQ ID NO: 230) (peptide)
peptide: VPLPAGGGTVL
B42: APREEQQRSL (SEQ ID NO: 287) (peptide)
peptide: APREEQQRSL
B43: VPLPAGGGTV (SEQ ID NO: 229) (peptide)
peptide: VPLPAGGGTV
B44: LPRAGGAFL (SEQ ID NO: 276) (peptide)
peptide: LPRAGGAFL
B45: RVIDAVRFTL (SEQ ID NO: 253) (peptide)
peptide: RVIDAVRFTL
B46: GLASRILDAK (SEQ ID NO: 208) (peptide)
peptide: GLASRILDAK
B47: RTQIPMSEK (SEQ ID NO: 209) (peptide)
peptide: RTQIPMSEK
B48: RTMSEAALVRK (SEQ ID NO: 214) (peptide)
peptide: RTMSEAALVRK
B49: AINTSIKNK (SEQ ID NO: 453) (peptide)
peptide: AINTSIKNK
B50: KLAELEGALQK (SEQ ID NO: 202) (peptide)
peptide: KLAELEGALQK
B51: RIADIFVKK (SEQ ID NO: 455) (peptide)
peptide: RIADIFVKK
B52: GIADFVLKY (SEQ ID NO: 458) (peptide)
peptide: GIADFVLKY
B53: KAYEQVMHY (SEQ ID NO: 212) (peptide)
peptide: KAYEQVMHY
B54: SLDGAARPK (SEQ ID NO: 205) (peptide)
peptide: SLDGAARPK
B55: MMFSGPQILKL (SEQ ID NO: 215) (peptide)
peptide: MMFSGPQILKL
B56: RSFNGLLTMY (SEQ ID NO: 207) (peptide)
peptide: RSFNGLLTMY
B57: KVKDTPGLGK (SEQ ID NO: 203) (peptide)
peptide: KVKDTPGLGK
B58: KLIDLSQVMY (SEQ ID NO: 206) (peptide)
peptide: KLIDLSQVMY
B59: KVYTPSISK (SEQ ID NO: 454) (peptide)
peptide: KVYTPSISK
B60: AVFDKFIRY (SEQ ID NO: 204) (peptide)
peptide: AVFDKFIRY
B61: RILNQILYY (SEQ ID NO: 217) (peptide)
peptide: RILNQILYY
B62: RLRSSLVFK (SEQ ID NO: 219) (peptide)
peptide: RLRSSLVFK
B63: ATSGVPVYK (SEQ ID NO: 210) (peptide)
peptide: ATSGVPVYK
B64: SINKPTSER (SEQ ID NO: 457) (peptide)
peptide: SINKPTSER
B65: SMFTAILKK (SEQ ID NO: 456) (peptide)
peptide: SMFTAILKK
B66: TVNPVAIHK (SEQ ID NO: 211) (peptide)
peptide: TVNPVAIHK

The first test concerns the target T1, HLA-B*44 (human).
T1 construct: MHC monomer made peptide-receptive by UV cleavage of a UV-sensitive ligand; also called peptide-receptive MHC class I monomer
Briefly: UV peptide-exchange ELISA; +++ = yield >50%. A general note: In an ELISA, binding on a coated surface is turned into a signal by an enzyme label.
In the case of B1, the peptide exchange yield was 50 to 75%. In turn, B2 displayed a peptide exchange yield of 50 to 75%. Molecule B3 returned a peptide exchange yield of 50 to 75%.

Regarding B4, the peptide exchange yield was 50 to 75%. B5 showed a peptide exchange yield of 50 to 75%. The same measure, in the same setting: the result for B6 reads 50 to 75%; that for B7, 50 to 75%. As for B8, the peptide exchange yield was in the range of 50 to 75%. B9 returned a peptide exchange yield of 50 to 75%. On the same count and under the same terms, the result for B10 reads 50 to 75%; that for B11, 50 to 75%; that for B12, 50 to 75%.

For a further test, the target named is T2, HLA-A*24 (human).
T2 construct: MHC monomer made peptide-receptive by UV cleavage of a UV-sensitive ligand; also called peptide-receptive MHC class I monomer
As to the kind of experiment: UV peptide-exchange ELISA; +++ = yield >50%.
With B13, the peptide exchange yield lay within 50 to 75%. In the case of B14, the peptide exchange yield is 50 to 75%. Same read-out and setting: the result for B15 reads 50 to 75%. As for B16, the peptide exchange yield fell in the range of 50 to 75%. Regarding B17, the peptide exchange yield lay in the range of 50 to 75%. Same read-out and setting: under B18 stands 50 to 75%; under B19, 50 to 75%. Molecule B20 yielded a peptide exchange yield of 50 to 75%.

As to B21, the peptide exchange yield is 50 to 75%. As to B22, the peptide exchange yield lay within 50 to 75%. Consider B23, for which the peptide exchange yield is 50 to 75%.

On to B24, for which the peptide exchange yield fell in the range of 50 to 75%.

Regarding B25, the peptide exchange yield is 50 to 75%. On to B26, for which the peptide exchange yield lay in the range of 50 to 75%.

A further test has as its target T3, HLA-B*07 (human).
T3 construct: MHC monomer made peptide-receptive by UV cleavage of a UV-sensitive ligand; also called peptide-receptive MHC class I monomer
As to the kind of experiment: UV peptide-exchange ELISA; +++ = yield >50%.
For B27, the peptide exchange yield fell in the range of 50 to 75%. The molecule B28 displayed a peptide exchange yield of 50 to 75%. B29 returned a peptide exchange yield of 50 to 75%. Consider B30, for which the peptide exchange yield is 50 to 75%. Same read-out and setting: under B31 stands 50 to 75%; under B32, 50 to 75%; under B33, 50 to 75%. Regarding B34, the peptide exchange yield lay within 50 to 75%.

Molecule B35 registered a peptide exchange yield of 50 to 75%. For the molecule B36, the peptide exchange yield lay within 50 to 75%. In turn, B37 came in with a peptide exchange yield of 50 to 75%. Turning to B38, the peptide exchange yield was 50 to 75%. B39 showed a peptide exchange yield of 50 to 75%. In turn, B40 yielded a peptide exchange yield of 50 to 75%. Regarding B41, the peptide exchange yield lay within 50 to 75%. In turn, B42 gave a peptide exchange yield of 50 to 75%. B43: the peptide exchange yield lay in the range of 50 to 75%. For B44, the peptide exchange yield lay in the range of 50 to 75%. Same read-out and setting: under B45 stands 50 to 75%.

In the next test the target is T4, HLA-A*03 (human).
T4 construct: MHC monomer made peptide-receptive by UV cleavage of a UV-sensitive ligand; also called peptide-receptive MHC class I monomer
As to the kind of experiment: UV peptide-exchange ELISA; ++++ = yield >75%.
B46 displayed a peptide exchange yield above 75%. B47: the peptide exchange yield was above 75%. On to B48, for which the peptide exchange yield is above 75%. Take B49: the peptide exchange yield was above 75%. Same read-out and setting: under B50 stands above 75%; under B51, above 75%; under B52, above 75%. On the same count and under the same terms, under B53 stands above 75%. Molecule B54 showed a peptide exchange yield above 75%. On the same count and under the same terms, under B55 stands above 75%; under B56, above 75%. With B57, the peptide exchange yield is above 75%.

B58 came in with a peptide exchange yield above 75%. In turn, B59 yielded a peptide exchange yield above 75%. In turn, B60 registered a peptide exchange yield above 75%. In the case of B61, the peptide exchange yield was above 75%. Turning to B62, the peptide exchange yield is above 75%. B63 gave a peptide exchange yield above 75%. Consider B64, for which the peptide exchange yield is above 75%.

With B65, the peptide exchange yield was above 75%. On to B66, for which the peptide exchange yield was above 75%.
